{"source": "paper PMC12164976", "about": "(Science Advances, 2025)", "binders": {"B1": {"name": "HiLyte Fluor 488-labeled L11 peptide (peptide)", "peptide": "GSFDPLGLADD", "modifications": "also: HiLyte Fluor 488 label, position not given here"}, "B2": {"name": "fluorescein-labeled 54C peptide (peptide)", "peptide": "QKQKAPPGTARRKRKAC", "modifications": "also: fluorescein label, position not given here"}}, "experiment_in_all_cases": "fluorescence polarisation", "key": {"[1]": {"molecular_target": "T1, chloroplast signal recognition particle 43-kDa protein (cpSRP43), wild type, full length (A. thaliana, UniProt O22265 57-373)", "T1 sequence": "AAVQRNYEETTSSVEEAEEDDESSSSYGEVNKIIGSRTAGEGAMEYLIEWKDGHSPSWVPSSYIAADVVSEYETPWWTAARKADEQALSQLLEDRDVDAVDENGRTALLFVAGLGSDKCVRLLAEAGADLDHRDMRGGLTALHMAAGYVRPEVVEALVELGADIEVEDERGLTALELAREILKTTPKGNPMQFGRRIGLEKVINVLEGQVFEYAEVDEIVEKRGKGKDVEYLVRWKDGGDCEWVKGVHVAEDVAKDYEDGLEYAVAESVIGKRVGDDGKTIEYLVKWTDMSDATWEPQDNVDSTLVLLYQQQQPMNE"}, "[2]": {"molecular_target": "T1, chloroplast signal recognition particle …", "remark": "listed apart in the source"}, "[3]": {"molecular_target": "T1, chloroplast signal recognition particle …", "remark": "listed apart in the source"}}, "note": "Like-named read-outs stand apart in the source and are kept apart here. No end group written: not given here.", "data": [{"binder": "B1", "values": [{"measurement": "Kd", "setting": "[1]", "value": 12, "unit": "nM"}, {"measurement": "Kd", "setting": "[2]", "value": 28, "unit": "nM"}, {"measurement": "Kd", "setting": "[3]", "value": 710, "unit": "nM"}]}, {"binder": "B2", "values": [{"measurement": "Kd", "setting": "[1]", "value": 36, "unit": "nM"}, {"measurement": "Kd", "setting": "[2]", "value": 230, "unit": "nM"}, {"measurement": "Kd", "setting": "[3]", "value": 5000, "unit": "nM"}]}]}
